Patent CN112500478A

Target: 非洲猪瘟病毒(African swine fever Virus, ASFV)全病毒 / 灭活非洲猪瘟病毒抗原

B1: 抗非洲猪瘟病毒的ScFv抗体VH-VLλ6 (scFv)
scFv: MEVKLVESGGGLVQPGGSLRLSCVGSGVTVTSYTVSWVRQAPGKGLEWLAGNGSSSKTTVDSDSVRGRFFISRDNSQNTAYLQMNSLRTEDTARYYCVQTIDSDCTSRLWGPGVEVVVGGGGSGGMSQTVIQEPAMSVSPGGTVTLTCAFSSATVTISNYPGWYQQTPRQPPRQLIYGLSSRPTGVPSRFSGAISGNKATLTITGAQAEDEADYFCALYNAGSRYNYMFGGGTHLTVL
  OD450nm: 1.15 OD450nm
